What all share (assay): SEC; gel permeation chromatography of ArcticExpress bacterial lysates on Superdex 20/300 GL in rupturing buffer (20 mM Tricine pH 7.5, 7.5 mM MgCl2, 1 mM DTT), 0.25 ml/min; fractions immunoblotted with anti-S-tag; wild type also pretreated with CKII + 1 mM ATP or with CIP
The target of data set [1] is recombinant S-tagged Arabidopsis SS2 N-terminal region polypeptide (NT) (Arabidopsis thaliana) (UniProt Q9MAC8).
The target of data set [2] is recombinant S-tagged Arabidopsis SS2 N-terminal truncation TRU1 (Arabidopsis thaliana) (UniProt Q9MAC8).
Data set [3] concerns the molecule itself.

Usually stoichiometry N stands for a count of units in the complex or per binding partner.

On to “recombinant S-tagged Arabidopsis SS2 N-terminal region polypeptide (NT) (from UniProt Q9MAC8 56-240) (domain or fragment)”, for which the stoichiometry N in data set [1] was more than 6. In the case of “recombinant S-tagged Arabidopsis SS2 N-terminal truncation TRU1 (from UniProt Q9MAC8 57-792) (domain or fragment)”, the stoichiometry N in data set [2] stood at 2.

B1: recombinant S-tagged mature Arabidopsis thaliana starch synthase 2 (wild type) (enzyme, UniProt Q9MAC8 55-792, looked up)
chain: KCVSRVEASGSDDDEPEDALQATIDKSKKVLAMQRNLLHQIAERRKLVSSIKESTPDLDDAKASSKQESASSVNANTDATKKEIMDGDANGSVSPSTYGKSSLSKEPEAKTFSPSTESLKNRKQSSASVISSSPVTSPQKPSDVATNGKPWSSVVASSVDPPYKPSSVMTSPEKTSDPVTSPGKPSKSRAGAFWSDPLPSYLTKAPQTSTMKTEKYVEKTPDVASSETNEPGKDEEKPPPLAGANVMNVILVAAECAPFSKTGGLGDVAGALPKSLARRGHRVMVVVPRYAEYAEAKDLGVRKRYKVAGQDMEVMYFHAFIDGVDFVFIDSPEFRHLSNNIYGGNRLDILKRMVLFCKAAVEVPWYVPCGGVCYGDGNLAFIANDWHTALLPVYLKAYYRDHGIMKYTRSVLVIHNIAHQGRGPVDDFSYVDLPSHYLDSFKLYDPVGGEHFNIFAAGLKAADRVLTVSHGYSWEVKTLEGGWGLHNIINENDWKFRGIVNGIDTQEWNPEFDTYLHSDDYTNYSLENLHIGKPQCKAALQKELGLPVRPDVPLIGFIGRLDHQKGVDLIAEAVPWMMSQDVQLVMLGTGRPDLEEVLRQMEHQYRDKARGWVGFSVKTAHRITAGADILLMPSRFEPCGLNQLYAMNYGTIPVVHAVGGLRDTVQQFDPYSETGLGWTFDSAEAGKLIHALGNCLLTYREYKESWEGLQRRGMTQDLSWDNAAEKYEEVLVAAKYHW
notes: Cloned into pET29a; Predicted 85 kDa; also called SS2; AtSS2; source: E. coli ArcticExpress; in bacterial lysate (GPC); not shown: S-tag, N-terminal, kept
With B1, the “stoichiometry N” value in data set [3] stood at 2.

For the origin of these results see publication PMC6156364, “Bioinformatic and in vitro Analyses of Arabidopsis Starch Synthase 2 Reveal Post-translational Regulatory Mechanisms” (Frontiers in Plant Science, 2018).
